Measured values as given in the supplement of paper PMC12042874.
± gives the uncertainty stated by the source.

Assay: amyloid nucleation score (Sup35N fusion, yeast selection) (log enrichment); library NNK2; higher = more nucleation; inactive = no reads after selection
In short: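 In psi-negative yeast, Sup35N fusions carrying peptides of 20 random codons were induced with 100 μM copper sulfate for 24 hours. The cells then grew 7 days at 30°C on medium lacking adenine and uracil, and plasmid inserts from input and output were Illumina-sequenced, excluding sequences with under 100 input reads. Nucleation score is the DiMSum log enrichment of output over input reads, centred on the mode score of non-aggregating sequences.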

Row | Substance | amyloid nucleation score
1 | TALDAGHA | -1.19 ± 0.45
2 | WMYTSRPNSSQTIRGWRATY | -0.046 ± 0.39
3 | WNECVFGAPAFSRE | 3.11 ± 0.15
4 | FDVESMSNDLMAQWHKMLAC | -0.452 ± 0.48
5 | SSLVVMMGILMEVTVAGLGV | 0.241 ± 0.37
6 | NATCA | -1.01 ± 0.45
7 | YVYTLGI | -0.337 ± 1.1
8 | MMHEYAAGGLSSGLFWDMSG | -0.623 ± 0.63
9 | MNVYYHVGWNGCYSGVWRAE | 4.818 ± 0.043
10 | NCLVISFKLWHNLMTVGYGD | 3.66 ± 0.079
11 | SLKVHSWFGNIYSDFLLTSV | -0.55 ± 0.79
12 | MVIYHVPQYVRYWQP | 0.017 ± 0.63
13 | VWALKGMIYN | 0.33 ± 0.17
14 | ASNMIV | -0.563 ± 0.33
15 | HHLLVRMSMCC | 4.49 ± 0.058
16 | GPNDWRNCFRD | 0.401 ± 0.56
17 | RNIQYVAMEVCDFKFPVDGV | 0.223 ± 0.26
18 | DAWYMDFLSCACWIHWR | 0.871 ± 0.45
19 | VCTWYRVAIDRRINIS | 1.96 ± 0.066
20 | VYALTGMDKYGGLALYLSWR | 0.307 ± 0.44
21 | LLIKSSCFCSLDVFFS | 3.69 ± 0.089
22 | GQYKTGVRGSRLNLPLMLTE | 0.328 ± 0.19
23 | VCSNCNMDVTSYQASCKAYL | 0.783 ± 0.53
24 | SSEIKRSWGYFLSLLWFYYR | -0.696 ± 1
25 | YKAAIGFCINQCLRHHVTKR | inactive

Row | Substance | amyloid nucleation score
26 | AMYICLRVIGSSGRSVMASK | 0.782 ± 0.16
27 | LDYLGETNLLVRWHLAVTAS | 0.626 ± 0.16
28 | TSGQNESDA | 0.578 ± 0.81
29 | CCIRSLWLNLVLTNASGPSL | 4.39 ± 0.049
30 | FMQPYTCRSDFDRK | 0.052 ± 0.48
31 | VRAQKRSWGQGSL | 1.23 ± 0.14
32 | WVVRK | -1.76 ± 0.44
33 | YGPWSCLI | inactive
34 | NRHPRRYRNNAGDDSLMRIL | 1.74 ± 0.096
35 | GAFIMWYTGWVPHVDSGCCL | -1.04 ± 1.1
36 | GLYVLYDNINWDERTRALSG | -0.728 ± 0.48
37 | IYIWCARHEILWYRNGWGRG | 0.2 ± 0.36
38 | VRILYGS | 6.06 ± 0.082
39 | VHTAFRETLYRRDKMLCGMR | -0.709 ± 0.63
40 | YHCCFRSKAGFQESQDITIR | -0.18 ± 0.24
41 | LYSYDLTC | 1.78 ± 0.13
42 | GPFLMSVTLVYLFVFMFERL | -0.769 ± 0.36
43 | LLLITVVIRCRSWVWGWLIS | -0.358 ± 0.74
44 | SNPSVNLCRWIDACNSDLIT | 0.165 ± 1
45 | NWSVTGCQLRGGRTEGNGIR | 0.122 ± 0.5
46 | LTTMFFIMCHEFNLLAVFNY | 1.27 ± 0.26
47 | VLYSFSGVTPWHKYPCNCV | 0.256 ± 0.46
48 | VLESYFDTYM | -2 ± 0.76
49 | SQLLDSLQNGRGCYSM | inactive
50 | ALWTSC | 2.35 ± 0.078

Row | Substance | amyloid nucleation score
51 | RKPMLFLRYF | inactive
52 | AINAKRHTWLFNLHSTFLCF | 2.8 ± 0.14
53 | YAGYNISCP | inactive
54 | WHENMSGTPKLASTNNGSKR | 2.61 ± 0.18
55 | LVSYNITFEYHNGKGCGEYG | 3.63 ± 0.12
56 | VLPMVRMSINIVVGCWSQKL | 3.79 ± 0.081
57 | CFFLTHCRDIRNVSTV | -0.234 ± 0.37
58 | LCRIDRVWQLGYRWLYQDVV | 4.34 ± 0.084
59 | SMYVDVFLRFGSWLHSFT | -0.127 ± 0.74
60 | FSEFIYLCTSLMDARQGMVP | -0.804 ± 1.1
61 | KDFVG | 2.62 ± 0.11
62 | IAIPSDF | -0.214 ± 0.49
63 | IYFKIIQDKFQTRMCSNKSW | inactive
64 | FLKSVSVRVGVILQAHAQEV | 0.375 ± 0.57
65 | EVLTVYFARRFVESSGRGTG | 2.38 ± 0.13
66 | TVSLTWEKYNEQIHA | 0.399 ± 0.74
67 | NWMCMRCGVFVVLAVCLFWS | 3.42 ± 0.075
68 | FHEDRERGTIFDEFMIFRN | -0.945 ± 0.76
69 | VHSGLYAKCVRLYMQNFPHL | 0.192 ± 0.79
70 | RNALLCADLTPLAPLNLFCD | -0.636 ± 0.76
71 | RVPIWRANIGKGSSIMPIFC | 0.009 ± 0.76
72 | SGWELRQITFGMTDCIGG | -0.328 ± 0.42
73 | TLMGNVRTCPPAGRRATTAS | 0.966 ± 0.22
74 | LWAFHLNFVLSAVCLRRKNL | inactive
75 | TYHYLMYLLVRRNMGDVNGA | 3.49 ± 0.097

Row | Substance | amyloid nucleation score
76 | TSLVLCYLTIELSVLISSGN | 0.221 ± 0.36
77 | GFEGMSMADRKKGEVRAIWG | 0.755 ± 0.31
78 | GIVVSIMHGIDSYGAIY | -0.395 ± 0.39
79 | EFSRDRSENIAGTPSLRLNQ | 4.56 ± 0.049
80 | YSKNWYWCTDYARANTLYHG | -1.14 ± 1.1
81 | TFSQYTWEFIYN | 3.68 ± 0.11
82 | SQGIVSDAANYMHILSAGYD | 0.044 ± 0.55
83 | HSVLEYFVTLCSNFLLWWVL | -0.192 ± 0.65
84 | YIYLNEKFCITYMRESWNCC | 0.651 ± 0.39
85 | GMRSCYWCEPSYCWASA | 2.9 ± 0.066
86 | DGYLRYYSNLDG | 0.147 ± 1.1
87 | SWVSFDKSLHMGVVYDRLRR | inactive
88 | RKCAPMDASSRHADSYPSQS | 1.24 ± 0.19
89 | SYHRQRSNTFTAKLQCSRSW | 0.307 ± 0.56
90 | ESKVAIA | -0.247 ± 0.24
91 | VCDRFWFSLDLWLFIRTFRF | -0.679 ± 1.1
92 | CIYRHAFVLFTKPLNFGRVR | -0.166 ± 0.49
93 | RHFHGGSSIAARAVTWAGQG | 1.5 ± 0.44
94 | YSWKFFCRWNEQD | 1.04 ± 0.59
95 | GWGRLTY | 0.21 ± 0.74
96 | AWRAYITILGKDHAVSVSGL | 0.715 ± 0.43
97 | FWFIRTRAGDWCPSSSPRMF | 0.149 ± 0.23
98 | HLPGYSPIDCRKGLVLGRCT | 0.027 ± 0.54
99 | PHQKSAY | -0.284 ± 0.79
100 | RVSTVFSLKTRRCEFLFQCV | 0.24 ± 0.35

Row | Substance | amyloid nucleation score
101 | ASNAWDRLGSVPGFSRGRLR | -0.308 ± 0.48
102 | LLNDFRQLNTRYDSRWGQWQ | 3.08 ± 0.058
103 | MYCYRNFLSDDINRGGALVM | -0.998 ± 0.74
104 | FFQGSVSLCFQASHQWSFLI | 3.06 ± 0.11
105 | SYFDMWIGW | 1.2 ± 0.47
106 | CPSLRGVVVRSLSTGSSDAR | 0.163 ± 0.56
107 | FYWRFTFRLVCRFCYTRHLK | -0.522 ± 0.35
108 | VVWVSITKWATRAVISHGDT | 0.617 ± 0.32
109 | RVTSIVYLKLICFMGVSNLF | inactive
110 | NKAHINW | 0.476 ± 0.6
111 | ARCCFVPEEYSVV | 1.22 ± 0.25
112 | YLGGMGSICDVNPCLYNRFL | 0.655 ± 0.16
113 | TAGFRILRRHFSIGVGSRTW | inactive
114 | SEMDPNKAMRIGW | 0.174 ± 0.21
115 | SPMTDLVRMRGRME | 0.051 ± 0.49
116 | LTGALREFPIYSGANDIWWR | -0.796 ± 0.44
117 | VIWIRTIKMHACTYVQQDVL | 0.806 ± 0.45
118 | VLDFQTSYMLPEFVRPGVGY | 0.216 ± 0.25
119 | SPYAFACAGCSGVKG | 0.234 ± 0.26
120 | IGNRQVDFISDGAG | 0.034 ± 1.1
121 | YNIIYWFLYKVQAWSVCSWG | 5.31 ± 0.077
122 | SFSCNNSLDYKGNFS | 1.48 ± 0.18
123 | LSMELNVYVERWWFSKLDRG | -1.26 ± 0.49
124 | VPEFCVSSCNSVNLRASE | 1.78 ± 0.14
125 | QPSVL | 0.524 ± 0.81

Row | Substance | amyloid nucleation score
126 | SVYRFFAKSKMKCWGLHNGG | -0.63 ± 0.55
127 | YCCFMSRHGSKWHYVNICIF | inactive
128 | HKLFHLDSVQVYKQYGKEAI | 1.16 ± 0.18
129 | TGGGATLRRILRHLSVGSDR | -0.005 ± 0.79
130 | VPSHRPFVYHRKDLGFLGSV | 0.269 ± 0.6
131 | LSGFV | -0.554 ± 0.64
132 | KSCDIL | -0.335 ± 0.79
133 | SLRYLHFGVDHLS | 3.94 ± 0.055
134 | FYCSNSYYNVRIDRQNYCQM | 5.501 ± 0.052
135 | IMMNNMAVIFR | 6.3 ± 0.083
136 | RSLGTRAFAVRFRTSCWINV | -0.317 ± 0.46
137 | IAKFTVMDFYGMVVAYSNCR | 1.12 ± 0.42
138 | FGRRYIMLRKYIDVIDLSIH | -0.843 ± 0.76
139 | FNGLVVFSEHMIRITACDEG | -0.479 ± 1
140 | LFTVWVASVVWSCADVA | -1.34 ± 0.78
141 | FYFIIWNSLRPILRLSVAPV | -0.392 ± 0.61
142 | HSHPCDREFLPRMHAWLDSS | -0.135 ± 0.33
143 | MNACSQGVSQSSDFQL | 5.08 ± 0.066
144 | RRAGNIVLECSG | 3.68 ± 0.11
145 | NLVLRPR | inactive
146 | FCVIPIKGQRSLHIPVQLFG | -1.07 ± 0.76
147 | SVVVNPCLLA | -0.623 ± 1
148 | GLMMPYL | 0.062 ± 0.39
149 | CCVYAASLLPFQLVAALLTD | 0.91 ± 0.34
150 | NMFNPFRFRISNYEVCSNMC | 6.257 ± 0.043

Row | Substance | amyloid nucleation score
151 | NWGMLLGCGGW | 0.201 ± 0.8
152 | IESRL | inactive
153 | GWASHGDNDSAMTGGSVWPG | 0.587 ± 0.62
154 | FCGFMGTAPHMRPYVMPWLR | 0.816 ± 0.46
155 | KRYLWTGN | -0.534 ± 0.35
156 | LCARALLH | 0.905 ± 0.32
157 | DEECTEPTWIGDEFDPLDIE | inactive
158 | IWFRIQVCEIPSLIQTIVRR | -0.064 ± 0.32
159 | MVFFLLQLATAAVFSF | -0.073 ± 1
160 | GSWLLGMMVLQRILMNG | 1.41 ± 0.44
161 | VNAPGTSYGYYVLNVQWGGW | 1.12 ± 0.26
162 | LALKGLLFSHNGKLEKGQV | -0.17 ± 0.79
163 | FIYCVTFVDDCRYVINLRGT | 7.964 ± 0.079
164 | YVSECVANA | inactive
165 | SPKTDDTTVMGELYVWLTLG | 8.338 ± 0.036
166 | ACCFESSGIQLEVRGGGAWG | 1.58 ± 0.27
167 | VGVLNSIKPYLCVSAKRKCV | 0.09 ± 0.74
168 | TLEKSFPLEFVV | 0.204 ± 0.65
169 | HFMIVSLDGNHVMTTAAGVA | 0.233 ± 0.43
170 | FDVVIGMFVNLITRSKCGEW | 1.61 ± 0.53
171 | FRRLNTATRRCVTSG | -1.13 ± 0.55
